From patent publication US20260092110A1 (Kyowa Kirin, published 2026)

T1: human MOG (hMOG) expressed on HEK293, Expi293F or L929 cells (human, UniProt Q16653 30-247)
T1 construct: also called hMOG/HEK293; hMOG/HEK293F
T1 chain: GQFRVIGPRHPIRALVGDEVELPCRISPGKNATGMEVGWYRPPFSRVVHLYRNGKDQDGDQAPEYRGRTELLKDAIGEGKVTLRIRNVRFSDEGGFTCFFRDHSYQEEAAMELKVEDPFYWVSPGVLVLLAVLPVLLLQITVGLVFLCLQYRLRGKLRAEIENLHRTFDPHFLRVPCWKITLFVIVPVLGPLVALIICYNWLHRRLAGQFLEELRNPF

B1: AVM-MOG01 IgG4PE(R409K) antibody (bispecific antibody)
heavy 1: EVQLVESGGGLVQPGRSLKLSCAASGFTFSNYAMAWVRRAPTKGLEWVASISNGGGNTYYRDSVKGRFTISRDDAKNTLYLQMDSLRSEDTATYYCARHGNYIYYGSFFDYWGQGVMVTVSSASTKGPSVFPLAPCSRSTSESTAALGCLVKDYFPEPVTVSWNSGALTSGVHTFPAVLQSSGLYSLSSVVTVPSSSLGTKTYTCNVDHKPSNTKVDKRVESKYGPPCPPCPAPEFEGGPSVFLFPPKPKDTLMISRTPEVTCVVVDVSQEDPEVQFNWYVDGVEVHNAKTKPREEQFNSTYRVVSVLTVLHQDWLNGKEYKCKVSNKGLPSSIEKTISKAKGQPREPQVYTLPPCQEEMTKNQVSLWCLVKGFYPSDIAVEWESNGQPENNYKTTPPVLDSDGSFFLYSKLTVDKSRWQEGNVFSCSVMHEALHNHYTQKSLSLSLGKDYKDDDDK
heavy 2: QVQLQQSGAGLLKPSETLSLTCAVSGGSFSGYYWTWIRQRPGKGLEWIGEINHRGSTDYNPSLKSRVTMSIDTSKSQFSLNLKSVTAADTAVYYCARAAWGSCYDGTCYPAEYFQYWGQGTLVTVSSASTKGPSVFPLAPCSRSTSESTAALGCLVKDYFPEPVTVSWNSGALTSGVHTFPAVLQSSGLYSLSSVVTVPSSSLGTKTYTCNVDHKPSNTKVDKRVESKYGPPCPPCPAPEFEGGPSVFLFPPKPKDTLMISRTPEVTCVVVDVSQEDPEVQFNWYVDGVEVHNAKTKPREEQFNSTYRVVSVLTVLHQDWLNGKEYKCKVSNKGLPSSIEKTISKAKGQPREPQVCTLPPSQEEMTKNQVSLSCAVKGFYPSDIAVEWESNGQPENNYKTTPPVLDSDGSFFLVSKLTVDKSRWQEGNVFSCSVMHEALHNHYTQKSLSLSLGKHHHHHH
light 1: QFVLSQPNSVSTNLGSTVKLSCKRSTGNIGSNYVSWYQQHEGRSPTTMIYRDDKRPDGVPDRFSGSIDRSSDSALLTINNVQTEDEADYFCQSYSSGINIFGGGTKLTVLGQPKAAPSVTLFPPSSEELQANKATLVCLISDFYPGAVTVAWKADSSPVKAGVETTTPSKQSNNKYAASSYLSLTPEQWKSHRSYSCQVTHEGSTVEKTVAPTECS
light 2: QSALTQPASVSGSPGQSITISCTGTSRDVGGYNYVSWYQQHPGKAPKLMIYDVNNRPSGVSNRFSGSKSGNTASLTISGLQAEDEADYFCSSYTSSSTPVVFGGGTKLTVLGQPKAAPSVTLFPPSSEELQANKATLVCLISDFYPGAVTVAWKADSSPVKAGVETTTPSKQSNNKYAASSYLSLTPEQWKSHRSYSCQVTHEGSTVEKTVAPTECS
notes: copies: 1 + 1 + 1 + 1
B2: AVM IgG4PE(R409K)_MOG01dscFv5 antibody (bispecific antibody)
heavy: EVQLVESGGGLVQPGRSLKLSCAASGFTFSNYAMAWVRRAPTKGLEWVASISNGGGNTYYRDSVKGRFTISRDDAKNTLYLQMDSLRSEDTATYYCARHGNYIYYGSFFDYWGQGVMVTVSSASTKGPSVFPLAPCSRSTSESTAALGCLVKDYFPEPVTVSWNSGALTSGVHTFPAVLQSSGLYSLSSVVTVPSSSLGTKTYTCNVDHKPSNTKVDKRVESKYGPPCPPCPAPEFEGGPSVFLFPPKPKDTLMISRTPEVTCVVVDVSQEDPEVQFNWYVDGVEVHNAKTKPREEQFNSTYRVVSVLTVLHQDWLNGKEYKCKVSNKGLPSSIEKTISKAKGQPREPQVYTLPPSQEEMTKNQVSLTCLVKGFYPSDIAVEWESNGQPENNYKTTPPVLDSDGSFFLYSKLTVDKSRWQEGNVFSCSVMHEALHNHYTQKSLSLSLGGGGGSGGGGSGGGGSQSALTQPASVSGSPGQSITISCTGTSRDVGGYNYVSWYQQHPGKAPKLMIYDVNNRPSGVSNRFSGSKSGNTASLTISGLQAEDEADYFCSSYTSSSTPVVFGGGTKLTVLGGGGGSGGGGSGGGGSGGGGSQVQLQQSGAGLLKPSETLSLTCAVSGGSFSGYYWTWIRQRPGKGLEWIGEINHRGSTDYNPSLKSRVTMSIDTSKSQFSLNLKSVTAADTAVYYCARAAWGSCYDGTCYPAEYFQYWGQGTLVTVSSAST
light: QFVLSQPNSVSTNLGSTVKLSCKRSTGNIGSNYVSWYQQHEGRSPTTMIYRDDKRPDGVPDRFSGSIDRSSDSALLTINNVQTEDEADYFCQSYSSGINIFGGGTKLTVLGQPKAAPSVTLFPPSSEELQANKATLVCLISDFYPGAVTVAWKADSSPVKAGVETTTPSKQSNNKYAASSYLSLTPEQWKSHRSYSCQVTHEGSTVEKTVAPTECS
notes: also called pCI-AVM-hLG4PE(R409K)_MOG01scFv5
B3: AVM IgG4PE(R409K)_MOG01dscFv7 antibody (bispecific antibody)
heavy: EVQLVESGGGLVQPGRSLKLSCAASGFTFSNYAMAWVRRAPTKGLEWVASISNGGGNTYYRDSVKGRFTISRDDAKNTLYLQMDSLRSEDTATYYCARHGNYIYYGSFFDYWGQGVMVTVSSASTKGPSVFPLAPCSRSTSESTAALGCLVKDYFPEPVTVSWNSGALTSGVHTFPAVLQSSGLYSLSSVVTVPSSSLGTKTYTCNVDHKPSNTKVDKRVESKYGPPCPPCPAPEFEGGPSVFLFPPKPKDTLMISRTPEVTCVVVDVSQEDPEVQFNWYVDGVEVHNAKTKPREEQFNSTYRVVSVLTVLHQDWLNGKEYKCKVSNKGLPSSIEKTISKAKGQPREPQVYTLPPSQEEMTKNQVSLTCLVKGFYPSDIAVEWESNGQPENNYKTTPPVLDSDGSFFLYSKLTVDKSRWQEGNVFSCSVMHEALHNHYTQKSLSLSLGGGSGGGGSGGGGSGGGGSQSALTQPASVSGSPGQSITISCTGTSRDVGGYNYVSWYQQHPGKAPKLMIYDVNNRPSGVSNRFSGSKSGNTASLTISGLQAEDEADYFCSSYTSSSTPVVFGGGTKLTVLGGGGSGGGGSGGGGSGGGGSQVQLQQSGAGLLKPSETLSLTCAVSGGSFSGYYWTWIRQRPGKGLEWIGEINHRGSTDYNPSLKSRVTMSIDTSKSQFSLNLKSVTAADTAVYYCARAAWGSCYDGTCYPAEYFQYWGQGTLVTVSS
light: QFVLSQPNSVSTNLGSTVKLSCKRSTGNIGSNYVSWYQQHEGRSPTTMIYRDDKRPDGVPDRFSGSIDRSSDSALLTINNVQTEDEADYFCQSYSSGINIFGGGTKLTVLGQPKAAPSVTLFPPSSEELQANKATLVCLISDFYPGAVTVAWKADSSPVKAGVETTTPSKQSNNKYAASSYLSLTPEQWKSHRSYSCQVTHEGSTVEKTVAPTECS
notes: also called pCI-AVM-hLG4PE(R409K)_MOG01scFv7
B4: AVM IgG4PE(R409K)_MOG01dscFv6 antibody (bispecific antibody)
heavy: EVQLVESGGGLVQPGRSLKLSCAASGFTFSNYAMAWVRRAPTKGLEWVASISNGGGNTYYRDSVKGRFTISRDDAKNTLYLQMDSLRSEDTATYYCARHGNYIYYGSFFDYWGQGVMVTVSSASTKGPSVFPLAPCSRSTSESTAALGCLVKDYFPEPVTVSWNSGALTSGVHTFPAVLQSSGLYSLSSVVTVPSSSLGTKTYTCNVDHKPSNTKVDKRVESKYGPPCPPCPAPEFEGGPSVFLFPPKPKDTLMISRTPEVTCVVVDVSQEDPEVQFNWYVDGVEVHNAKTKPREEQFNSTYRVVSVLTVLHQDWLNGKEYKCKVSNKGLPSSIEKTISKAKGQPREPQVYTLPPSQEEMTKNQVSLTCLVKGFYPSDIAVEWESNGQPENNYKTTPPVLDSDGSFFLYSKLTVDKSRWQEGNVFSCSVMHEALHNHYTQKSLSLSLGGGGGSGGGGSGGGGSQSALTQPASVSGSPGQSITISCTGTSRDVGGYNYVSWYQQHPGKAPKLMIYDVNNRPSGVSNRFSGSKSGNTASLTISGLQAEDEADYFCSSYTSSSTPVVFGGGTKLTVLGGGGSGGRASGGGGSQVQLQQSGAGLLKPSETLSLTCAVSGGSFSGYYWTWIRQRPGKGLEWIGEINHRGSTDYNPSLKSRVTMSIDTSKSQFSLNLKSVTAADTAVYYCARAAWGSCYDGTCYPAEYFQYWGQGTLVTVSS
light: QFVLSQPNSVSTNLGSTVKLSCKRSTGNIGSNYVSWYQQHEGRSPTTMIYRDDKRPDGVPDRFSGSIDRSSDSALLTINNVQTEDEADYFCQSYSSGINIFGGGTKLTVLGQPKAAPSVTLFPPSSEELQANKATLVCLISDFYPGAVTVAWKADSSPVKAGVETTTPSKQSNNKYAASSYLSLTPEQWKSHRSYSCQVTHEGSTVEKTVAPTECS
notes: also called pCI-AVM-hLG4PE(R409K)_MOG01scFv6
B5: AVM IgG4PE(R409K)_MOG01dscFv3 antibody (bispecific antibody)
heavy: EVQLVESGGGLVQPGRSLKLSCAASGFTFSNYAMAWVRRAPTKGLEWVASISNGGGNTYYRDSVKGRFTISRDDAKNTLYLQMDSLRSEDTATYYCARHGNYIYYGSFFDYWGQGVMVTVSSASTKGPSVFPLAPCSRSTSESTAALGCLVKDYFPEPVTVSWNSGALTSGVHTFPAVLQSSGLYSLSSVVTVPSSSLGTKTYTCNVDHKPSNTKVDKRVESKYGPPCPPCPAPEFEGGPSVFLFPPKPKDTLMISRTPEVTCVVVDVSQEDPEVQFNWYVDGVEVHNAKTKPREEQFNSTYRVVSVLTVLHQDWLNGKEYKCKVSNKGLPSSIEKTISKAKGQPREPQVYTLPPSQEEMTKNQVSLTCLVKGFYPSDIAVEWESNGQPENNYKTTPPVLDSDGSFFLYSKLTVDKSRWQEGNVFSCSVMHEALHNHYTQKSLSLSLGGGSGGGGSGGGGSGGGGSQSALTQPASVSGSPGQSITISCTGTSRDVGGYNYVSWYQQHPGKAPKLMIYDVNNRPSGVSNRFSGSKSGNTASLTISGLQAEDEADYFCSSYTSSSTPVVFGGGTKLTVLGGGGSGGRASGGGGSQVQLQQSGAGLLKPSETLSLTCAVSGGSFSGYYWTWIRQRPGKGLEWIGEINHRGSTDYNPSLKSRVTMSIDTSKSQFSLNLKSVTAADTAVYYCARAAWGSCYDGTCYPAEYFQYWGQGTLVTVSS
light: QFVLSQPNSVSTNLGSTVKLSCKRSTGNIGSNYVSWYQQHEGRSPTTMIYRDDKRPDGVPDRFSGSIDRSSDSALLTINNVQTEDEADYFCQSYSSGINIFGGGTKLTVLGQPKAAPSVTLFPPSSEELQANKATLVCLISDFYPGAVTVAWKADSSPVKAGVETTTPSKQSNNKYAASSYLSLTPEQWKSHRSYSCQVTHEGSTVEKTVAPTECS
notes: also called pCI-AVM-hLG4PE(R409K)_MOG01scFv3
B6: AVM IgG4PE(R409K)_MOG01 Fab antibody (bispecific antibody)
heavy 1: not shown
heavy 2: QVQLQQSGAGLLKPSETLSLTCAVSGGSFSGYYWTWIRQRPGKGLEWIGEINHRGSTDYNPSLKSRVTMSIDTSKSQFSLNLKSVTAADTAVYYCARAAWGSCYDGTCYPAEYFQYWGQGTLVTVSSASTKGPSVFPLAPCSRSTSESTAALGCLVKDYFPEPVTVSWNSGALTSGVHTFPAVLQSSGLYSLSSVVTVPSSSLGTKTYTCNVDHKPSNTKVDKRV
light: QFVLSQPNSVSTNLGSTVKLSCKRSTGNIGSNYVSWYQQHEGRSPTTMIYRDDKRPDGVPDRFSGSIDRSSDSALLTINNVQTEDEADYFCQSYSSGINIFGGGTKLTVLGQPKAAPSVTLFPPSSEELQANKATLVCLISDFYPGAVTVAWKADSSPVKAGVETTTPSKQSNNKYAASSYLSLTPEQWKSHRSYSCQVTHEGSTVEKTVAPTECS
B7: AVM IgG4PE(R409K)_MOG01sscFv antibody (bispecific antibody)
heavy 1: EVQLVESGGGLVQPGRSLKLSCAASGFTFSNYAMAWVRRAPTKGLEWVASISNGGGNTYYRDSVKGRFTISRDDAKNTLYLQMDSLRSEDTATYYCARHGNYIYYGSFFDYWGQGVMVTVSSASTKGPSVFPLAPCSRSTSESTAALGCLVKDYFPEPVTVSWNSGALTSGVHTFPAVLQSSGLYSLSSVVTVPSSSLGTKTYTCNVDHKPSNTKVDKRVESKYGPPCPPCPAPEFEGGPSVFLFPPKPKDTLMISRTPEVTCVVVDVSQEDPEVQFNWYVDGVEVHNAKTKPREEQFNSTYRVVSVLTVLHQDWLNGKEYKCKVSNKGLPSSIEKTISKAKGQPREPQVYTLPPCQEEMTKNQVSLWCLVKGFYPSDIAVEWESNGQPENNYKTTPPVLDSDGSFFLYSKLTVDKSRWQEGNVFSCSVMHEALHNHYTQKSLSLSLGGGSGGGGSGGGGSGGGGSQVQLQQSGAGLLKPSETLSLTCAVSGGSFSGYYWTWIRQRPGKGLEWIGEINHRGSTDYNPSLKSRVTMSIDTSKSQFSLNLKSVTAADTAVYYCARAAWGSCYDGTCYPAEYFQYWGQGTLVTVSSGGGGSGGRASGGGGSQSALTQPASVSGSPGQSITISCTGTSRDVGGYNYVSWYQQHPGKAPKLMIYDVNNRPSGVSNRFSGSKSGNTASLTISGLQAEDEADYFCSSYTSSSTPVVFGGGTKLTVLDYKDDDDK
heavy 2: EVQLVESGGGLVQPGRSLKLSCAASGFTFSNYAMAWVRRAPTKGLEWVASISNGGGNTYYRDSVKGRFTISRDDAKNTLYLQMDSLRSEDTATYYCARHGNYIYYGSFFDYWGQGVMVTVSSASTKGPSVFPLAPCSRSTSESTAALGCLVKDYFPEPVTVSWNSGALTSGVHTFPAVLQSSGLYSLSSVVTVPSSSLGTKTYTCNVDHKPSNTKVDKRVESKYGPPCPPCPAPEFEGGPSVFLFPPKPKDTLMISRTPEVTCVVVDVSQEDPEVQFNWYVDGVEVHNAKTKPREEQFNSTYRVVSVLTVLHQDWLNGKEYKCKVSNKGLPSSIEKTISKAKGQPREPQVCTLPPSQEEMTKNQVSLSCAVKGFYPSDIAVEWESNGQPENNYKTTPPVLDSDGSFFLVSKLTVDKSRWQEGNVFSCSVMHEALHNHYTQKSLSLSLGKHHHHHH
light: QFVLSQPNSVSTNLGSTVKLSCKRSTGNIGSNYVSWYQQHEGRSPTTMIYRDDKRPDGVPDRFSGSIDRSSDSALLTINNVQTEDEADYFCQSYSSGINIFGGGTKLTVLGQPKAAPSVTLFPPSSEELQANKATLVCLISDFYPGAVTVAWKADSSPVKAGVETTTPSKQSNNKYAASSYLSLTPEQWKSHRSYSCQVTHEGSTVEKTVAPTECS
notes: copies: 1 + 1 + 2

How the values were obtained:
[1] = target: T2, extracellular domain protein of rat MOG to which GST is added at the C-terminus (rMOG-GST) (rat); assay: SPR as in Example 8 (antibody captured, rMOG-GST analyte)
T2 construct: whole construct entry
T2 sequence (chain, as listed by the source limits assumed): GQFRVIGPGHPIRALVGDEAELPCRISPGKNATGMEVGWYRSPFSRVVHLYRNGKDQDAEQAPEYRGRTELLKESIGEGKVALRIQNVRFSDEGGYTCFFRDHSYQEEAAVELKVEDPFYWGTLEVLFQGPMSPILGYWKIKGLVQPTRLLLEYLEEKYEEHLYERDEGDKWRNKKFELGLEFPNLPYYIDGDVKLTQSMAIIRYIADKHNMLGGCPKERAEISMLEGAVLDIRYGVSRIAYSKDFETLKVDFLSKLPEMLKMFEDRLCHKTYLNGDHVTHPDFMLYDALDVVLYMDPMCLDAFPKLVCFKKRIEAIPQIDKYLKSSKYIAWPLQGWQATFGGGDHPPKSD
Procedure: The antibodies were immobilized on CM5 sensor chips using a Human antibody Capture kit, and the binding abilities were evaluated using rMOG-GST produced in Example 4 as an analyte. The obtained sensorgrams were analyzed with BIA evaluation software, and the dissociation constants (KD values) were thus calculated.
Binding of the bispecific antibodies obtained in Example 6 and Example 16 to MOG was evaluated by the same method as that of Example 8.

[2] = target: T1, human MOG (hMOG) expressed on HEK293, …; assay: flow cytometry on L929 cells expressing human MOG (hMOG/L929); antibody titrated, RPE-labelled goat anti-human antibody
From the text: (§1) pEF6_hMOG obtained in Example 5 was introduced to mouse connective tissue-derived fibroblast L929 cells [American Type Culture Collection (ATCC) No.: CCL-1] using HilyMax (manufactured by Dojindo Laboratories). The gene-transfected cells were selected using an antibiotic substance, Blasticidin (manufactured by Invitrogen) and then cloned by the limiting dilution method. Using the L929 cells expressing hMOG on the cell surface (abbreviated as hMOG/L929 below), the reactivities of the bispecific antibodies were analyzed by the method described below.
(§2) The hMOG/L929 cells were suspended in a Staining Buffer (SB) of PBS containing 0.1% NaN₃ and 1% FBS and dispensed to a round-bottom 96-well plate (manufactured by Becton Dickinson). […] After suspending the pellets, the plate was left to stand at ice temperature for 30 minutes. The supernatants were removed after further centrifugation (2000 rpm, 4° C., two minutes), and the pellets were washed with SB. Then, 1 μg/mL RPE fluorescently labeled goat anti-human antibody (manufactured by Southern Biotech) was added, and the plate was incubated at ice temperature for 30 minutes. After washing with SB, the cells were suspended in SB, and the fluorescence intensities of the cells were measured with a flow cytometer FACS CANTO II (manufactured by Becton Dickinson). The results are shown in FIGS. 12A to 12C and FIGS. 13A and 13B.

[3] = target: T1, human MOG (hMOG) expressed on HEK293, …; assay: flow cytometry, hMOG/L929 cells
From the text: as §1, §2

Binder	Kd [1] [nM]	koff [1] [s⁻¹]	kon [1] [M⁻¹ s⁻¹]	binding result [2]	binding result [3]
B1	12	0.0016	130000	binds	–
B2	24	0.0048	200000	–	binds
B3	–	–	–	–	binds
B4	–	–	–	–	binds
B5	13	0.0022	170000	–	binds
B6	34	0.0035	100000	binds	–
B7	200	0.01	51000	binds	–
